Measured values published in patent EP0877803B1.

Tests used:
[1] = biological target: OB protein; experiment: BIACORE; OB protein immobilized, conditioned medium of 293 cells expressing the receptor
[2] = biological target: OB protein; experiment: BIACORE; OB protein immobilized, conditioned medium of CHO cells expressing the receptor

Row | BIACORE read-out [1] | BIACORE read-out [2] | Substance
1 | 191 | 151 | recombinant soluble human OB receptor (leader + extracellular domain, Seq. ID No. 10)
2 | 172 |  | recombinant soluble human OB receptor with a C-terminal FLAG-tag (Seq. ID No. 12)
